In patent US20210115100A1:

Experiments:
Assay in all cases: cell-based or functional assay
[1] = target: wild type human mature BMP7 (SEQ ID NO: 2) (human) (UniProt P18075)
[2] = target: wild type human pro-BMP7 (human) (UniProt P18075)
[3] = target: human mature BMP7 protein variant F9 (SEQ ID NO: 8) (human) (UniProt P18075)
[4] = target: human pro-BMP7 protein variant F9 (human) (UniProt P18075)
human pro-BMP7 protein variant F9 (human), sequence (P18075 other isoform, or with tags, fused parts or gaps mutant, chain 1 of 2): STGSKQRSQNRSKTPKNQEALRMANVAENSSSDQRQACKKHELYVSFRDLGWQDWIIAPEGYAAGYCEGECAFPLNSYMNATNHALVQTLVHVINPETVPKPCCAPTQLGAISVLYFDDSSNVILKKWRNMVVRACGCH
human pro-BMP7 protein variant F9 (human), sequence (P18075 other isoform, or with tags, fused parts or gaps mutant, chain 2 of 2): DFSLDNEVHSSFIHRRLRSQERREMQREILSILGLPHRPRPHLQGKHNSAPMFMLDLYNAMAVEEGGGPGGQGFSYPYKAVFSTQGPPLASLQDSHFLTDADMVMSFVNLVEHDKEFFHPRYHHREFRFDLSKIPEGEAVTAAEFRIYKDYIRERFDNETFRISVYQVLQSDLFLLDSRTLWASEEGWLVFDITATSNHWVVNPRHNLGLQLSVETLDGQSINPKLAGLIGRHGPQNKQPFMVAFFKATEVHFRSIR

human mature BMP7 protein variant F9 (SEQ ID NO: 8) (human), sequence (P18075 other isoform, or with tags, fused parts or gaps mutant): as the sequence (P18075 other isoform, or with tags, fused parts or gaps mutant, chain 1 of 2) above
wild type human pro-BMP7 (human), sequence (P18075 293-431, chain 1 of 2): as the sequence (P18075 other isoform, or with tags, fused parts or gaps mutant, chain 1 of 2) above, with G65Y, L86I, V93F, G110N, W128Y counted along it
wild type human pro-BMP7 (human), sequence (P18075 other isoform, or with tags, fused parts or gaps, chain 2 of 2): as the sequence (P18075 other isoform, or with tags, fused parts or gaps mutant, chain 2 of 2) above
wild type human mature BMP7 (SEQ ID NO: 2) (human), sequence (P18075 293-431): as the sequence (P18075 other isoform, or with tags, fused parts or gaps mutant, chain 1 of 2) above, with G65Y, L86I, V93F, G110N, W128Y counted along it

B1: Noggin (protein, UniProt Q13253 28-232, looked up, species assumed)
Noggin: QHYLHIRPAPSDNLPLVDLIEHPDPIFDPKEKDLNETLLRSLLGGHYDPGFMATSPPEDRPGGGGGAAGGAEDLAELDQLLRQRPSGAMPSEIKGLEFSEGLAQGKKQRLSKKLRRKLQMWLWSQTFCPVLYAWNDLGSRFWPRYVKVGSCFSKRSCSVPEGMVCKPSKSVHLTVLRWRCQRRGGQRCGWIPIQYPIISECKCSC
**Q.** For B1, which % inhibition, 0.1X molar excess of inhibitor (hepcidin promoter luciferase, Hep3B2 HepPro luc cells) [1] is on record?
**A.** The % inhibition, 0.1X molar excess of inhibitor (hepcidin promoter luciferase, Hep3B2 HepPro luc cells) was -12.2%.

**Q.** What about the % inhibition, 1X molar excess of inhibitor (hepcidin promoter luciferase, Hep3B2 HepPro luc cells) [1] of the same binder?
**A.** The % inhibition, 1X molar excess of inhibitor (hepcidin promoter luciferase, Hep3B2 HepPro luc cells) was 36.7%.

**Q.** And the % inhibition, 10X molar excess of inhibitor (hepcidin promoter luciferase, Hep3B2 HepPro luc cells) [1]?
**A.** Its % inhibition, 10X molar excess of inhibitor (hepcidin promoter luciferase, Hep3B2 HepPro luc cells) is 72.8%.

**Q.** What about the % inhibition, 100X molar excess of inhibitor (hepcidin promoter luciferase, Hep3B2 HepPro luc cells) [1] of the same binder?
**A.** Its % inhibition, 100X molar excess of inhibitor (hepcidin promoter luciferase, Hep3B2 HepPro luc cells) is 73.7%.

**Q.** What about the % inhibition, 0.1X molar excess of inhibitor (hepcidin promoter luciferase, Hep3B2 HepPro luc cells) [2] of the same binder?
**A.** Its % inhibition, 0.1X molar excess of inhibitor (hepcidin promoter luciferase, Hep3B2 HepPro luc cells) is -5.3%.

**Q.** And the % inhibition, 1X molar excess of inhibitor (hepcidin promoter luciferase, Hep3B2 HepPro luc cells) [2]?
**A.** Its % inhibition, 1X molar excess of inhibitor (hepcidin promoter luciferase, Hep3B2 HepPro luc cells) is 24.8%.

**Q.** And the % inhibition, 10X molar excess of inhibitor (hepcidin promoter luciferase, Hep3B2 HepPro luc cells) [2]?
**A.** The % inhibition, 10X molar excess of inhibitor (hepcidin promoter luciferase, Hep3B2 HepPro luc cells) was 84.8%.

**Q.** And the % inhibition, 100X molar excess of inhibitor (hepcidin promoter luciferase, Hep3B2 HepPro luc cells) [2]?
**A.** Its % inhibition, 100X molar excess of inhibitor (hepcidin promoter luciferase, Hep3B2 HepPro luc cells) is 87.3%.

**Q.** And the % inhibition, 0.01X molar excess of inhibitor (hepcidin promoter luciferase, Hep3B2 HepPro luc cells) [3]?
**A.** Its % inhibition, 0.01X molar excess of inhibitor (hepcidin promoter luciferase, Hep3B2 HepPro luc cells) is -2.6%.

**Q.** And the % inhibition, 0.1X molar excess of inhibitor (hepcidin promoter luciferase, Hep3B2 HepPro luc cells) [3]?
**A.** The % inhibition, 0.1X molar excess of inhibitor (hepcidin promoter luciferase, Hep3B2 HepPro luc cells) was -7.2%.

**Q.** What about the % inhibition, 1X molar excess of inhibitor (hepcidin promoter luciferase, Hep3B2 HepPro luc cells) [3] of the same binder?
**A.** Its % inhibition, 1X molar excess of inhibitor (hepcidin promoter luciferase, Hep3B2 HepPro luc cells) is -6.9%.

**Q.** And the % inhibition, 10X molar excess of inhibitor (hepcidin promoter luciferase, Hep3B2 HepPro luc cells) [3]?
**A.** The % inhibition, 10X molar excess of inhibitor (hepcidin promoter luciferase, Hep3B2 HepPro luc cells) was -1.2%.

**Q.** And the % inhibition, 0.1X molar excess of inhibitor (hepcidin promoter luciferase, Hep3B2 HepPro luc cells) [4]?
**A.** The % inhibition, 0.1X molar excess of inhibitor (hepcidin promoter luciferase, Hep3B2 HepPro luc cells) was -15.2%.

**Q.** What about the % inhibition, 1X molar excess of inhibitor (hepcidin promoter luciferase, Hep3B2 HepPro luc cells) [4] of the same binder?
**A.** Its % inhibition, 1X molar excess of inhibitor (hepcidin promoter luciferase, Hep3B2 HepPro luc cells) is -18.3%.

**Q.** What about the % inhibition, 10X molar excess of inhibitor (hepcidin promoter luciferase, Hep3B2 HepPro luc cells) [4] of the same binder?
**A.** Its % inhibition, 10X molar excess of inhibitor (hepcidin promoter luciferase, Hep3B2 HepPro luc cells) is -23.6%.

**Q.** And the % inhibition, 100X molar excess of inhibitor (hepcidin promoter luciferase, Hep3B2 HepPro luc cells) [4]?
**A.** Its % inhibition, 100X molar excess of inhibitor (hepcidin promoter luciferase, Hep3B2 HepPro luc cells) is -28.1%.

B2: Coco (protein, UniProt Q8N907 23-189, looked up, species assumed)
DAN domain family member 5: RPEPQSPRPQSWAAANQTWALGPGALPPLVPASALGSWKAFLGLQKARQLGMGRLQRGQDEVAAVTLPLNPQEVIQGMCKAVPFVQVFSRPGCSAIRLRNHLCFGHCSSLYIPGSDPTPLVLCNSCMPARKRWAPVVLWCLTGSSASRRRVKISTMLIEGCHCSPKA
**Q.** Which results are given for B2?
**A.** % inhibition, 0.1X molar excess of inhibitor (hepcidin promoter luciferase, Hep3B2 HepPro luc cells) [1]: -23.6%; % inhibition, 1X molar excess of inhibitor (hepcidin promoter luciferase, Hep3B2 HepPro luc cells) [1]: -25.9%; % inhibition, 10X molar excess of inhibitor (hepcidin promoter luciferase, Hep3B2 HepPro luc cells) [1]: 37.6%; % inhibition, 100X molar excess of inhibitor (hepcidin promoter luciferase, Hep3B2 HepPro luc cells) [1]: 77.4%; % inhibition, 0.1X molar excess of inhibitor (hepcidin promoter luciferase, Hep3B2 HepPro luc cells) [2]: -10.2%; % inhibition, 1X molar excess of inhibitor (hepcidin promoter luciferase, Hep3B2 HepPro luc cells) [2]: 4%; % inhibition, 10X molar excess of inhibitor (hepcidin promoter luciferase, Hep3B2 HepPro luc cells) [2]: 17.4%; % inhibition, 100X molar excess of inhibitor (hepcidin promoter luciferase, Hep3B2 HepPro luc cells) [2]: 81.6%; % inhibition, 0.01X molar excess of inhibitor (hepcidin promoter luciferase, Hep3B2 HepPro luc cells) [3]: 2.3%; % inhibition, 0.1X molar excess of inhibitor (hepcidin promoter luciferase, Hep3B2 HepPro luc cells) [3]: 7%; % inhibition, 1X molar excess of inhibitor (hepcidin promoter luciferase, Hep3B2 HepPro luc cells) [3]: 7.3%; % inhibition, 10X molar excess of inhibitor (hepcidin promoter luciferase, Hep3B2 HepPro luc cells) [3]: 28.5%; % inhibition, 0.1X molar excess of inhibitor (hepcidin promoter luciferase, Hep3B2 HepPro luc cells) [4]: -35.4%; % inhibition, 1X molar excess of inhibitor (hepcidin promoter luciferase, Hep3B2 HepPro luc cells) [4]: -27.5%; % inhibition, 10X molar excess of inhibitor (hepcidin promoter luciferase, Hep3B2 HepPro luc cells) [4]: 7%
